# Experimental data: paper doi:10.1101/686790
# T1: GST-HP1γ-Hinge (UniProt P23198 77-111)
# T1 chain: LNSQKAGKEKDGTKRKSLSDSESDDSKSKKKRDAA
# How the values were obtained:
# GST-HP1γ-Hinge = target: T1, GST-HP1γ-Hinge; test: EMSA
# GST-HP1γ = GST-HP1γ (UniProt P23198 11-183); test: EMSA
# GST-HP1γ, sequence (P23198 11-183): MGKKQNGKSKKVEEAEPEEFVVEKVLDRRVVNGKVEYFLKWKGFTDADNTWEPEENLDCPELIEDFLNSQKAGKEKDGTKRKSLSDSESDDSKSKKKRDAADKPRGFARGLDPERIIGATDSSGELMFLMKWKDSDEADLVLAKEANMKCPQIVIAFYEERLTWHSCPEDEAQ
Binder,binding result (GST-HP1γ-Hinge),binding result (GST-HP1γ)
CGCUUCGGGCUCGCCGCUCGCUUCC (ssRNA) [Scrambled],no binding,
UCUGGCACACAGCCACACGCUCAC (ssRNA) [CACACA],binds,binds
GUGAGCUCCAGGCCAGUGAGAGACCCUGUCUCAA (ssRNA) [GAGAGA],binds,
